Source: US20220153832A1 (PIONYR IMMUNOTHERAPEUTICS, published 2022)
Changes are numbered by the printed parent chain.

T1: Mouse MARCO, full length, on cells (mouse, UniProt Q60754 1-518)
T1 construct: whole, on cells; the cell type is named under assay; also called muMARCO; MuMARCO
T1 sequence (looked up): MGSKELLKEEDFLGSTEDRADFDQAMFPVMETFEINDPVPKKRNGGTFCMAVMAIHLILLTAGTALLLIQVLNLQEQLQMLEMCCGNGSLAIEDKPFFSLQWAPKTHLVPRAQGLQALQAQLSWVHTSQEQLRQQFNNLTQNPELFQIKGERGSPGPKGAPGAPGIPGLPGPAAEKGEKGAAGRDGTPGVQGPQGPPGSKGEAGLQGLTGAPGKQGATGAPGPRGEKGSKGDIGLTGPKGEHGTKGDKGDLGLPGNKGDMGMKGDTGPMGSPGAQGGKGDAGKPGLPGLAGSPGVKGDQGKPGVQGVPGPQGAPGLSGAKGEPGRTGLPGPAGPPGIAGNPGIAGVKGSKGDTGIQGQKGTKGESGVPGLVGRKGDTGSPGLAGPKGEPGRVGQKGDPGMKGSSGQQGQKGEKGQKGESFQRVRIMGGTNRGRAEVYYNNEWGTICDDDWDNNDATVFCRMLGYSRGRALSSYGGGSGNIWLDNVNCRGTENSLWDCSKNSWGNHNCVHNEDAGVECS

T2: Cynomolgus MARCO, full length, on cells (cynomolgus, UniProt A0A2K5X0Z2 1-519)
T2 construct: whole, on cells; also called cyno MARCO; CyMARCO
T2 sequence: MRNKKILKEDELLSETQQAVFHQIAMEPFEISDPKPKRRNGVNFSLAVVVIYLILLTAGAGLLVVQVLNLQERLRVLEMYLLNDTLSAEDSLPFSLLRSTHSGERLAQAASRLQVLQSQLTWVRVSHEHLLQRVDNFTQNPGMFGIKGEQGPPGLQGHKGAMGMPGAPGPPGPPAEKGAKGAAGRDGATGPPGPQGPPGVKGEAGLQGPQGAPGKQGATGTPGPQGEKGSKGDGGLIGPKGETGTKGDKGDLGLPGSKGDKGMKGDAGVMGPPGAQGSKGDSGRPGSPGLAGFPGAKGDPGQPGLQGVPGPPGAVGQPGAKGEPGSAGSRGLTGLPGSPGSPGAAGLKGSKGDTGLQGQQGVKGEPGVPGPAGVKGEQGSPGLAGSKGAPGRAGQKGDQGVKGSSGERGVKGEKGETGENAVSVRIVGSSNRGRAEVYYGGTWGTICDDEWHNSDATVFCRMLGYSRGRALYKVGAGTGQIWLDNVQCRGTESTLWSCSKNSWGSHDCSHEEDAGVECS

T3: N-terminally polyhistidine tagged human MARCO ECD (147-520), recombinant (human, UniProt Q9UEW3 147-520)
T3 construct: also called PI-RG-3000; recombinant human MARCO; not shown: N-terminal polyhistidine tag
T3 sequence: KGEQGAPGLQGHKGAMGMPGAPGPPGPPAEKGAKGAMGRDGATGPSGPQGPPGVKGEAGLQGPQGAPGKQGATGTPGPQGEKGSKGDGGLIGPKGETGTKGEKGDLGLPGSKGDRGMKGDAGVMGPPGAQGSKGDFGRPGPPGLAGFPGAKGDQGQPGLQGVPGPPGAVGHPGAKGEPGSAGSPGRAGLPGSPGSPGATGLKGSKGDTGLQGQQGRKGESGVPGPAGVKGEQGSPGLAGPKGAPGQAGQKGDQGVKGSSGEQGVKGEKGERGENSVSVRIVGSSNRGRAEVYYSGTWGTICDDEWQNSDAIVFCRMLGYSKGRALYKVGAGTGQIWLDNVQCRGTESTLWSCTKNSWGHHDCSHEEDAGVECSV

B1: PI-HX-3021 (antibody, V domains shown)
VH: QVRLVQSGTALVRPGASVRMSCTASGYSFTDYWVSWVKQSHGQSLEWIGEIYPNSGTTNFNEKFEGKATLTVDKSTSTAYMELSRLTSEDSAIYYCTGEGTFDYWGQGVMVTVSS
VL: EIVLTQSPTTMAASPGEKVTITCRPSSSLSNMHWFQQKSGTSPKPWIYDTSKLASGVPDRFSGSGSGTSYSLTISSMEAEDAATYYCLQRSSYPPTFGAGTKLELK
notes: Rat IgG2a hybridoma antibody; Not the effector dead PI-3021; also called PI-3007 (name of the recombinant form)
B2: PI-HX-3016 (antibody, rat IgG1, V domains shown)
VH: EVQLVESGGGLVKPGASLKLSCVASGFTFSDDWMNWVRQTPGKAMEWIGDIKYDGSYTNYVPSLKNRLTISRDNAKNTLYLQMTNVRSEDTATYYCTSGGVFDYWGQGVMVTVSS
VL: B1 VL with T5S, P25A, L29V, N31Y, S92G, L105V
notes: Rat IgG1 hybridoma antibody
B3: PI-HX-3031 (antibody)
heavy: QVQLKESGPGLVQPSQTLSLTCTVSGFSLTSYHVSWVRQPPGKGLEWMGAIWTGGSIAYNSLLKSRLSISRDTSKSQVFLKMNSLQTEDTATYYCARDLSDYYSSYTSFDYWGQGVMVTVSTAETTAPSVYPLAPGTALKSNSMVTLGCLVKGYFPEPVTVTWNSGALSSGVHTFPAVLQSGLYTLTSSVTVPSSTWSSQAVTCNVAHPASSTKVDKKIVPRECNPCGCTGSEVSSVFIFPPKTKDVLTITLTPKVTCVVVDISQNDPEVRFSWFIDDVEVHTAQTHAPEKQSNSTLRSVSELPIVHRDWLNGKTFKCKVNSGAFPAPIEKSISKPEGTPRGPQVYTMAPPKEEMTQSQVSITCMVKGFYPPDIYTEWKMNGQPQENYKNTPPTMDTDGSYFLYSKLNVKKETWQQGNTFTCSVLHEGLHNHHTEKSLSHSP
light: DIQMTQSPASLSTSLGETVSIECLASEGISNDLAWYQQKSGKSPQLLIYAASRLQDGVPSRFSGSGSGTRYSLKISGMQPEDEADYFCQQSYKYPLTFGSGTKLEIKRADAAPTVSIFPPSTEQLATGGASVVCLMNNFYPRDISVKWKIDGTERRDGVLDSVTDQDSKDSTYSMSSTLSLTKADYESHNLYTCEVVHKTSSSPVVKSFNRNEC
notes: Parental rat hybridoma, rat IgG2a
B4: PI-HX-3043 (antibody, rat IgG2a)
heavy: QVNLLQSRAALVKPGASVKLSCKASGYTFTDYYLHWVKQSHAKSLEWIGYINPNNAYTSYNEKFKSKATLTVDKSTNTAYMELSRLTSADSATYYCARDTTDYYNLHFAYWGQGTLVTVSSAETTAPSVYPLAPGTALKSNSMVTLGCLVKGYFPEPVTVTWNSGALSSGVHTFPAVLQSGLYTLTSSVTVPSSTWSSQAVTCNVAHPASSTKVDKKIVPRECNPCGCTGSEVSSVFIFPPKTKDVLTITLTPKVTCVVVDISQNDPEVRFSWFIDDVEVHTAQTHAPEKQSNSTLRSVSELPIVHRDWLNGKTFKCKVNSGAFPAPIEKSISKPEGTPRGPQVYTMAPPKEEMTQSQVSITCMVKGFYPPDIYTEWKMNGQPQENYKNTPPTMDTDGSYFLYSKLNVKKETWQQGNTFTCSVLHEGLHNHHTEKSLSHSP
light: B3 light with T13A, A25T, A50D, Q55E, P80T
notes: as for B3

Tests used:
[1] = biological target: T1, Mouse MARCO, full length, on cells; test: flow cytometry, 293T cells expressing mouse MARCO
Procedure: Supernatants were removed and cell pellets were resuspended in Ca²⁺+ and Mg²⁺+ Dulbecco's phosphate-buffered saline (D-PBS) at 1×10⁶ cells/ml. 100,000 cells/well were plated onto U-bottom 96-well plates for staining and all centrifugation steps were performed at 1500 rpm at 4° C. for 5 min and samples were kept protected from light throughout the protocol. Cells were pelleted and resuspended in 100 μl of Zombie NIR viability dye (BioLegend) prepared by diluting Zombie NIR dimethyl sulfoxide (DMSO) stock 1000-fold in D-PBS. […] Flow cytometry data were analyzed using FlowJo software (version 10.6.1) and data were processed and further analyzed in Microsoft Excel and GraphPad Prism software (version 8). Half-maximal effective concentrations (EC₅₀) were calculated based on geometric mean fluorescence intensities (gMFI). In case when the plates were not able to be analyzed on the cytometer, cells were pelleted after the washes and fixed in 100 μl of 2% paraformaldehyde (PFA), prepared by diluting the 16% (w/v) stock (Thermo Fisher) in DPBS, for 15 min at RT. […]

[2] = biological target: T2, Cynomolgus MARCO, full length, on cells; test: flow cytometry, 293T (CyMARCO)
Procedure: Supernatants were removed and cell pellets were resuspended in Ca²⁺+ and Mg²⁺+ Dulbecco's phosphate-buffered saline (D-PBS) at 1×10⁶ cells/ml. 100,000 cells/well were plated onto U-bottom 96-well plates for staining and all centrifugation steps were performed at 1500 rpm at 4° C. for 5 min and samples were kept protected from light throughout the protocol. Cells were pelleted and resuspended in 100 μl of Zombie NIR viability dye (BioLegend) prepared by diluting Zombie NIR dimethyl sulfoxide (DMSO) stock 1000-fold in D-PBS. Cells were stained by incubation for 10 min at room temperature (RT) in the dark, followed by quenching the staining reaction with the addition of 100 μl of Staining Medium (D-PBS containing 2% FBS and 2 mM ethylenediaminetetraacetic acid (EDTA). Cells were pelleted and resuspended in 100 μl of the different antibodies and hybridomas supernatants needed for screening and corresponding isotype controls in freshly prepared staining medium, such as PI-M014 and mIgG2b isotype. All mAbs were tested at the final top concentration of 100 nM (15 μg/ml) followed by an 8-point three-fold serial dilution, including 0 mg/ml control. Staining was carried out for 1 hour (hr) on ice, followed by 2 washes in Staining Medium. Cells were then pelleted and resuspended in 100 μl of allophycocyanin (APC)-conjugated goat anti-mouse IgG (Fc-specific) secondary antibody, prepared by 500-fold dilution of the antibody stocks in Staining Medium, and incubated for 30 min on ice. […] Flow cytometry data were analyzed using FlowJo software (version 10.6.1) and data were processed and further analyzed in Microsoft Excel and GraphPad Prism software (version 8). Half-maximal effective concentrations (EC₅₀) were calculated based on geometric mean fluorescence intensities (gMFI). In case when the plates were not able to be analyzed on the cytometer, cells were pelleted after the washes and fixed in 100 μl of 2% paraformaldehyde (PFA), prepared by diluting the 16% (w/v) stock (Thermo Fisher) in DPBS, for 15 min at RT. […]

[3] = biological target: T3, N-terminally polyhistidine tagged human …; test: ELISA on recombinant human MARCO, 50 mM EDTA
Procedure: After the plates were incubated at room temperature for 1 hour or 4° C. overnight, the plates were wash 3 times with ELISA wash buffer (PBS/0.05% TWEEN-20), then hybridoma supernatant (1:5 dilution) or purified antibody (1 ug) was diluted in DPBS/Ca2+/2% FBS, DPBS without Ca2+/2 mM EDTA/2% FBS, DPBS without Ca2+/10 mM EDTA/2% FBS, and DPBS without Ca2+/50 mM EDTA/2% FBS. Plates again were incubated at room temperature for 1 hour.

Binder | EC50 [1] [pM] | EC50 [2] [pM] | ELISA signal (A450) [3]
B1 | 470 to 750 | – | –
B2 | 360 to 590 | – | –
B3 | – | 46 | 0.0754
B4 | – | 67 | 0.1
